According to patent publication US12545899B2, “Luciferase enzymes for use with thermostable luciferins in bioluminescent assays” (Promega Corporation, priority 2018, dated 2026):

Experiment: Luminescence of ATG-3707 variants (second round epPCR) with CS0333
Type: biochemical
Conditions: for Luminescence (RLU) BrightGlo / Normalized Luminescence BrightGlo: BrightGlo buffer; for Luminescence (RLU) BrightGlo / Luminescence (RLU) CellTiterGlo / Luminescence (RLU) Detection Reagent: 25° C., 3 min; for Normalized Luminescence BrightGlo / Normalized Luminescence CellTiterGlo / Normalized Luminescence Detection Reagent: normalized to ATG-3707; for Luminescence (RLU) CellTiterGlo / Normalized Luminescence CellTiterGlo: CellTiterGlo buffer; for Luminescence (RLU) Detection Reagent / Normalized Luminescence Detection Reagent: Detection Reagent buffer
Experimental: Reagent compositions included CS0333 diluted from 20 mM to 2 mM in reaction buffer with 2 mM ATP. […] Reactions were incubated at 25° C. for 3 min, and luminescence was read and then normalized to ATG-3707 activity tested in parallel.

Molecule	Luminescence (RLU) BrightGlo [RLU]	Normalized Luminescence BrightGlo	Luminescence (RLU) CellTiterGlo [RLU]	Normalized Luminescence CellTiterGlo	Luminescence (RLU) Detection Reagent [RLU]	Normalized Luminescence Detection Reagent
C2158H1: SEQ ID NO: 44; H244W+T344A+I396K+S193A+N228D+L305F+S306P+I109V+I230F (protein) MADKNILYGPEPFYPLEDGTAGEQMFDALSRYAAIPGCIALTNAHTKENVLYEEFLKLSCRLAESFKKYGLKQNDTIAVCSENSLQFFLPVIASLYLGIIVAPVNDKYVERELIHSLGIVKPRIVFCSKNTFQKVLNVKSKLKSIETIIILDLNEDLGGYQCLNNFISQNSDSNLDVKKFKPYSFNRDDQVAAIMFSSGTTGLPKGVMLTHKNIVARFSIAKDPTFGDAFNPTSAILTVIPFHWGFGMMTTLGYFTCGFRVVLMHTFEEKLFLQSLQDYKVESTLLVPTLMAFLAKSALVEKYDFPHLKEIASGGAPLSKEIGEMVKKRFKLNFVRQGYGLTEATSAVLITPKGDAKPGSTGKIVPLHAVKVVDPTTGKILGPNEPGELYFKGPMKMKGYYNNEEATKAIIDNDGWLRSGDIAYYDNDGHFYIVDRLKSLIKYKGYQVAPAEIEGILLQHPYIVDAGVTGIPDEAAGELPAAGVVVQTGKYLNEQIVQDYVASQVSTAKWLRGGVKFLDEIPKGSTGKIDRKVLRQMLEKHTNGHHHHHHHH	3760160	0.97	778990	1.21	6098750	1.18
C2160C1: SEQ ID NO: 51; H244W+T344A+I396K+S193A+N228D+L305F+S306P+I109V+K121Q+F246Y+V261A (protein) MADKNILYGPEPFYPLEDGTAGEQMFDALSRYAAIPGCIALTNAHTKENVLYEEFLKLSCRLAESFKKYGLKQNDTIAVCSENSLQFFLPVIASLYLGIIVAPVNDKYVERELIHSLGIVQPRIVFCSKNTFQKVLNVKSKLKSIETIIILDLNEDLGGYQCLNNFISQNSDSNLDVKKFKPYSFNRDDQVAAIMFSSGTTGLPKGVMLTHKNIVARFSIAKDPTFGDAINPTSAILTVIPFHWGYGMMTTLGYFTCGFRAVLMHTFEEKLFLQSLQDYKVESTLLVPTLMAFLAKSALVEKYDFPHLKEIASGGAPLSKEIGEMVKKRFKLNFVRQGYGLTEATSAVLITPKGDAKPGSTGKIVPLHAVKVVDPTTGKILGPNEPGELYFKGPMKMKGYYNNEEATKAIIDNDGWLRSGDIAYYDNDGHFYIVDRLKSLIKYKGYQVAPAEIEGILLQHPYIVDAGVTGIPDEAAGELPAAGVVVQTGKYLNEQIVQDYVASQVSTAKWLRGGVKFLDEIPKGSTGKIDRKVLRQMLEKHTNGHHHHHHHH	4459170	1.15	450262	0.70	5002710	0.97
C2158H3: SEQ ID NO: 46; H244W+T344A+I396K+S193A+N228D+L305F+S306P+I109V+N154S+V261A+I410M (protein) MADKNILYGPEPFYPLEDGTAGEQMFDALSRYAAIPGCIALTNAHTKENVLYEEFLKLSCRLAESFKKYGLKQNDTIAVCSENSLQFFLPVIASLYLGIIVAPVNDKYVERELIHSLGIVKPRIVFCSKNTFQKVLNVKSKLKSIETIIILDLSEDLGGYQCLNNFISQNSDSNLDVKKFKPYSFNRDDQVAAIMFSSGTTGLPKGVMLTHKNIVARFSIAKDPTFGDAINPTSAILTVIPFHWGFGMMTTLGYFTCGFRAVLMHTFEEKLFLQSLQDYKVESTLLVPTLMAFLAKSALVEKYDFPHLKEIASGGAPLSKEIGEMVKKRFKLNFVRQGYGLTEATSAVLITPKGDAKPGSTGKIVPLHAVKVVDPTTGKILGPNEPGELYFKGPMKMKGYYNNEEATKAMIDNDGWLRSGDIAYYDNDGHFYIVDRLKSLIKYKGYQVAPAEIEGILLQHPYIVDAGVTGIPDEAAGELPAAGVVVQTGKYLNEQIVQDYVASQVSTAKWLRGGVKFLDEIPKGSTGKIDRKVLRQMLEKHTNGHHHHHHHH	3892740	1.00	648483	1.01	5916440	1.15
C2262C2: SEQ ID NO: 47; H244W+T344A+I396K+S193A+N228D+L305F+S306P+I109V+Y183C+V261A+T289S (protein) MADKNILYGPEPFYPLEDGTAGEQMFDALSRYAAIPGCIALTNAHTKENVLYEEFLKLSCRLAESFKKYGLKQNDTIAVCSENSLQFFLPVIASLYLGIIVAPVNDKYVERELIHSLGIVKPRIVFCSKNTFQKVLNVKSKLKSIETIIILDLNEDLGGYQCLNNFISQNSDSNLDVKKFKPCSFNRDDQVAAIMFSSGTTGLPKGVMLTHKNIVARFSIAKDPTFGDAINPTSAILTVIPFHWGFGMMTTLGYFTCGFRAVLMHTFEEKLFLQSLQDYKVESTLLVPSLMAFLAKSALVEKYDFPHLKEIASGGAPLSKEIGEMVKKRFKLNFVRQGYGLTEATSAVLITPKGDAKPGSTGKIVPLHAVKVVDPTTGKILGPNEPGELYFKGPMKMKGYYNNEEATKAIIDNDGWLRSGDIAYYDNDGHFYIVDRLKSLIKYKGYQVAPAEIEGILLQHPYIVDAGVTGIPDEAAGELPAAGVVVQTGKYLNEQIVQDYVASQVSTAKWLRGGVKFLDEIPKGSTGKIDRKVLRQMLEKHTNGHHHHHHHH	3874490	1.00	738328	1.15	5661740	1.10
C2261E4: SEQ ID NO: 50; H244W+T344A+I396K+S193A+N228D+L305F+S306P+I109V+I230F (protein) MADKNILYGPEPFYPLEDGTAGEQMFDALSRYAAIPGCIALTNAHTKENVLYEEFLKLSCRLAESFKKYGLKQNDTIAVCSENSLQFFLPVIASLYLGIIVAPVNDKYVERELIHSLGIVKPRIVFCSKNTFQKVLNVKSKLKSIETIIILDLNEDLGGYQCLNNFISQNSDSNLDVKKFKPYSFNRDDQVAAIMFSSGTTGLPKGVMLTHKNIVARFSIAKDPTFGDAFNPTSAILTVIPFHWGFGMMTTLGYFTCGFRVVLMHTFEEKLFLQSLQDYKVESTLLVPTLMAFLAKSALVEKYDFPHLKEIASGGAPLSKEIGEMVKKRFKLNFVRQGYGLTEATSAVLITPKGDAKPGSTGKIVPLHAVKVVDPTTGKILGPNEPGELYFKGPMKMKGYYNNEEATKAIIDNDGWLRSGDIAYYDNDGHFYIVDRLKSLIKYKGYQVAPAEIEGILLQHPYIVDAGVTGIPDEAAGELPAAGVVVQTGKYLNEQIVQDYVASQVSTAKWLRGGVKFLDEIPKGSTGKIDRKVLRQMLEKHTNGHHHHHHHH	3249560	0.84	710098	1.10	5375380	1.04
C2149A12: SEQ ID NO: 49; H244W+T344A+I396K+S193A+N228D+L305F+S306P+I109V+F246Y+V261A (protein) MADKNILYGPEPFYPLEDGTAGEQMFDALSRYAAIPGCIALTNAHTKENVLYEEFLKLSCRLAESFKKYGLKQNDTIAVCSENSLQFFLPVIASLYLGIIVAPVNDKYVERELIHSLGIVKPRIVFCSKNTFQKVLNVKSKLKSIETIIILDLNEDLGGYQCLNNFISQNSDSNLDVKKFKPYSFNRDDQVAAIMFSSGTTGLPKGVMLTHKNIVARFSIAKDPTFGDAINPTSAILTVIPFHWGYGMMTTLGYFTCGFRAVLMHTFEEKLFLQSLQDYKVESTLLVPTLMAFLAKSALVEKYDFPHLKEIASGGAPLSKEIGEMVKKRFKLNFVRQGYGLTEATSAVLITPKGDAKPGSTGKIVPLHAVKVVDPTTGKILGPNEPGELYFKGPMKMKGYYNNEEATKAIIDNDGWLRSGDIAYYDNDGHFYIVDRLKSLIKYKGYQVAPAEIEGILLQHPYIVDAGVTGIPDEAAGELPAAGVVVQTGKYLNEQIVQDYVASQVSTAKWLRGGVKFLDEIPKGSTGKIDRKVLRQMLEKHTNGHHHHHHHH	4701610	1.21	479613	0.74	5480500	1.06
C2159F8: SEQ ID NO: 48; H244W+T344A+I396K+S193A+N228D+L305F+S306P+I109V+Y32C (protein) MADKNILYGPEPFYPLEDGTAGEQMFDALSRCAAIPGCIALTNAHTKENVLYEEFLKLSCRLAESFKKYGLKQNDTIAVCSENSLQFFLPVIASLYLGIIVAPVNDKYVERELIHSLGIVKPRIVFCSKNTFQKVLNVKSKLKSIETIIILDLNEDLGGYQCLNNFISQNSDSNLDVKKFKPYSFNRDDQVAAIMFSSGTTGLPKGVMLTHKNIVARFSIAKDPTFGDAINPTSAILTVIPFHWGFGMMTTLGYFTCGFRVVLMHTFEEKLFLQSLQDYKVESTLLVPTLMAFLAKSALVEKYDFPHLKEIASGGAPLSKEIGEMVKKRFKLNFVRQGYGLTEATSAVLITPKGDAKPGSTGKIVPLHAVKVVDPTTGKILGPNEPGELYFKGPMKMKGYYNNEEATKAIIDNDGWLRSGDIAYYDNDGHFYIVDRLKSLIKYKGYQVAPAEIEGILLQHPYIVDAGVTGIPDEAAGELPAAGVVVQTGKYLNEQIVQDYVASQVSTAKWLRGGVKFLDEIPKGSTGKIDRKVLRQMLEKHTNGHHHHHHHH	4599710	1.18	650068	1.01	5611680	1.09
